In article doi:10.1101/2025.07.01.662521, “Ligand-induced Conformational Plasticity of the CTLH E3 Ligase Receptor GID4” (bioRxiv, 2025) one finds Kd data, which are given here for one molecule.

A word on the Kd: it is the free concentration of one partner at which half of the binding sites on the other are occupied at equilibrium, for simple one-to-one binding. A lower Kd goes with a tighter complex.

The target in the experiment is T1, Human Glucose-induced degradation protein 4 homolog (GID4), residues 116-300, N-terminally Avi-tagged, … (human, UniProt Q8IVV7 116-300, biotin (BirA, on the AVI tag)).
T1 construct: Glucose-induced degradation protein 4 homolog (GID4), human, UniProt Q8IVV7, residues 116-300; Construct: N-terminal Strep-SUMO-3C-6xHis-AVI-tag; cleaved with HRV-3C protease, which by the printed order of the tags should leave 6xHis-AVI on the protein; also called hGID4; biotinylated GID4; source: E. coli BL21(DE3), purified (Streptactin XT, HRV-3C cleavage, BirA biotinylation, SEC); not shown: …
T1 sequence (looked up): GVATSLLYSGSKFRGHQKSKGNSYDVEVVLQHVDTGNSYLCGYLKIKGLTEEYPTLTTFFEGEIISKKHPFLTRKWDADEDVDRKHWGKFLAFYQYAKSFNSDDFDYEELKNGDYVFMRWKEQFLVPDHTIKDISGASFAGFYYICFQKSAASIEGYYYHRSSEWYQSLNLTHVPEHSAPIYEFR
In words: SPR; biotinylated GID4 (116-300) captured on an SA chip (about 2500 RU), Biacore 8K; peptide flowed over; PBS pH 7.4, 0.05% P-20, 1 mM DTT, 1% DMSO. The note with it: both partners purified. (In SPR one partner is held on a chip, and binding of the other changes the refractive index at the surface.)

B1: degron peptide PGLWKS (peptide)
peptide: PGLWKS
notes: Pro/N-degron peptide; also called endogenous degron peptide; PGLWKS degron peptide
The molecule B1 returned a Kd of 2130 nM.
